Results as given in article doi:10.1101/2025.03.30.646161.

Test system: P04156
Conditions: AUC

Recombinant huPrP (23-230) from E. coli
percent of total signal as aggregates: about 71 % of total signal | percent of total signal as large aggregates: 58.3 % of total signal
